Data from the supplement of paper PMC9170038.

System: MS2 coat protein
Assay: apparent KD of MS2 coat protein; designed switch direction (-1 OFF switch, 1 ON switch): 1; higher = weaker reporter binding
How it was run: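 Three titration conditions were used: no input, 200 uM small-molecule ligand, and an oligonucleotide input. In each, SNAP-549-labelled MS2 coat protein was raised from 0.7 or 1.5 nM, doubling, to 3 µM over designed RNA switches transcribed on Illumina chips by stalled E. coli RNA polymerase. Curve fits of normalised cluster fluorescence gave values whose per-design median over clusters is the apparent KD.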

[1] = Eterna round: R95, input ligand: FMN 200 uM
[2] = Eterna round: R95, input ligand: microRNA oligo, concentration not stated
[3] = Eterna round: R95, input ligand: none
[4] = input ligand: microRNA oligo, concentration not stated

Row | Sequence | apparent KD of MS2 coat protein [1] [nM] | apparent KD of MS2 coat protein [2] [nM] | apparent KD of MS2 coat protein [3] [nM] | apparent KD of MS2 coat protein (input ligand: FMN 200 uM) [nM] | apparent KD of MS2 coat protein [4] [nM] | apparent KD of MS2 coat protein (input ligand: none) [nM]
1 | AUAUAACAUGAGGAUCACCCAUGUCUCUAAAGUCGAGGAUAUGGGCAGGUUAUAUCCGAACCAGAAGGCGAAUUAU [SS1 Teenbexe 5] (puzzle: Same State 1) | 56.3 | 239 | 322 |  |  | 
2 | UAUCCAUAGAUAGGAUAUUAGUGAACAUGAGGAUCACCCAUGUUUUGCUUGGUUUUAAGCUAAUCUGAGAAGGAUCUUGAUGAA [SameState NG2 #6] (Eterna round: R96, puzzle: Same State NG 2) |  |  |  | 31.5 | 33.3 | 41.6
3 | GAGCUCGUGUGAGGAUAUGCCGCCGUUUCGGCUGCAGAAGGUGCUACGUUACAUGAGGAUCACCCAUGUCUCUGUUGUUUCGUA [salish99_SSNG1_r04_960] (Eterna round: R96, puzzle: Same State NG 1) |  |  |  | 65.1 | 43.3 | 51.1
4 | GUAGAUGUAGAGGAGGAUAUUCAAUAGAGAACAUGAGGAUCACCCAUGUAAGAGAGAGAUGAUGGGAAGAAGGCUUAGAGAGAUG [Altered State 2-1 - Jieux - Same State 2] (puzzle: Same State 2) | 72.2 | 76.6 | 94.8 |  |  | 
5 | UUUUUGAUCCGAGGAUAUCCUUUUUUCUUACAUGAGGAUCACCCAUGUAAAGGGAUUGAGUUGUAGGAGAAGGCGGUUUUUUUU [JR_SSNG2_Sub060] (Eterna round: R96, puzzle: Same State NG 2) |  |  |  | 17.5 | 32.4 | 32.3
6 | AAAGACAUGGUGCAGGAUAUAUUAAUAGUCACAUGAGGAUCACCCAUGUUCAGAUAUCUGAACGAGUAGAAGGGCGAUGAAAAAA [SameState2 Malc#5] (Eterna round: R96, puzzle: Same State 2) |  |  |  | 530 | 28.7 | 204
7 | UUGUUACAUGAGGAUCACCCAUGUUGUUGUAGAUAAGGAUAUAUAGGAACGAGAGAAAUAAUAGAAGGUAUUAGAC [JR_SS1_Sub059] (puzzle: Same State 1) |  | 28.6 |  |  |  | 
8 | ACAAGCUUUUUAGGAGAGAAAGGUGGGAUACAUGAGGAUCACCCAUGUAUUGUUGUUAAUAGUGGACCUCGUCUUAU [JR_SHM208A_Sub083] (puzzle: Sensor for hsa-mir-208a) | 26.5 | 15.7 | 29.2 |  |  | 
9 | AUAAGGCAAGCUUUUUUCUCGUAGUGUAAACAUGAGGAUCACCCAUGUGCCCACCCUGGAUCUUUGGAUCGCGGAAC [Raxesori] (puzzle: Sensor for hsa-mir-208a) | 83.6 | 27.1 | 104 |  |  | 
10 | GCCGGCUGGUGAGGAUAUGGCACCUUAUUGGUGCCAGAAGGCAUGUCAAUUGACAUGAGGAUCACCCAUGUAUUAUGGUUGGCG [salish99_SSNG1_r04_606] (Eterna round: R96, puzzle: Same State NG 1) |  |  |  | 567 | 63.2 | 85.4
11 | ACGUGGAUAUCACAGGAUAUACUCACAACUACAUGAGGAUCACCCAUGUAGCGGUAUUCCGGUGCGUAGAAGGGUGAUGGACCAC [Same State 2 - Mod of Artece v.3] (puzzle: Same State 2) | 12.1 | 12 | 11.4 |  |  | 
12 | CUGCAACAUGAGGAUCACCCAUGUAACCCAAUUAUAGGAUAUGUGAUGGUGAUCGACAUGACAGAAGGGUGAUUGG [Arinra] (Eterna round: R96, puzzle: Same State 1) |  |  |  | 174 | 29.7 | 41.8
13 | GCUAGGAUAUGACCAGGAUCACCGGUUAGAAGGAGCGAAAGCUAGGAUAUGACCAGGAUCACCGGUUAGAAGGAGCUGUCCUCC [pwkr ssNG3 DX 2xF5 +2xFMN.12] (Eterna round: R96, puzzle: Same State NG 3) |  |  |  | 69.1 | 101 | 117
14 | AAGAAUCUAUCUCAGGAUAUCAUGUCAAAGACAUGAGGAUCACCCAUGUACCAGGAAACUGGUUAUGAGAAGGGAGAUAGAUUCG [Mat - Same State 2 - Mod - D37] (puzzle: Same State 2) | 235 | 134 | 233 |  |  | 
15 | AGUCCAGCCUGAGCUGGACAAAAGCAUGUACAUGAGGAUCACCCAUGUUCAUGUACAAGCUUUUUGCUCGUCUUAGC [salish99_208a_r3_063] (puzzle: Sensor for hsa-mir-208a) | 837 | 14.6 | 648 |  |  | 
16 | ACAUGAAAUUCAGGAUAUUUUGUACCUACAUGUGACAUGAGGAUCACCCAUGUGGUAAGUAUGAGAAAGAAGGGAAAGAUAUGU [Equivalence 10 - Jieux - Same State NG 2] (Eterna round: R96, puzzle: Same State NG 2) |  |  |  | 25.4 | 41.9 | 45.6
17 | CUGAAAUGUCAAGGAUAUCACGUCGAUUAGACGUGAGAAGGUGAUCUGCACAUGAGGAUCACCCAUGUGUUACAUGGGAAUCAG [Brourd's SSNG1/1-A2 mod 15] (Eterna round: R96, puzzle: Same State NG 1) |  |  |  | 289 | 90.3 | 624
18 | GCCAACGCAUGAGGAUAUGGCACCUUAUUGGUGCCAGAAGGCAUGUGUAUUCACAUGAGGAUCACCCAUGUAUUAUAGUUGGCA [Fiskers NG1ss - 16] (Eterna round: R96, puzzle: Same State NG 1) |  |  |  | 18.2 | 132 | 176
19 | AUUUAACAAGCUUUUUGCUCGUCUUAUAAACAUGAGGAUCACCCAUGUAAUAGCGUGAGAGUUAUUAUAUAAAUAAU [JMF 87] (puzzle: Sensor for hsa-mir-208a) | 18 | 33.1 | 16.7 |  |  | 
20 | CUGAAAUGUCAAGGAUAUCACGUCGAUUAGACGUGAGAAGGUGAUCUACACAUGAGGAUCACCCAUGUGUUACAUGGGAGUCAG [Brourd's SSNG1/1-A2 mod 17] (Eterna round: R96, puzzle: Same State NG 1) |  |  |  | 325 | 448 | 601
21 | AGUCCAGCCUGAGCUGGACAAAAGCAUGUACAUGAGGAUCACCCAUGUUCAUGUACAAGCUUUUUGCUCGUCUUCAA [salish99_208a_r3_097x] (puzzle: Sensor for hsa-mir-208a) | 701 | 13.7 | 525 |  |  | 
22 | AGACAUGAGGAUCACCCAUGUAUACACUAUAUCAGUGUAACAUAGGAUAUCCACCGCCAUGCUGUGGAGAAGGAUGAAACGGGC [Raerlaan] (Eterna round: R96, puzzle: Same State NG 3) |  |  |  | 211 | 65.9 | 108
23 | GAAGAACAUGAGGAUCACCCAUGUAGGCGGAAGCUAGGAUAUGCGGGAAAGAAGAGAGAAGCAGAAGGAGUAGGUA [JR_SS1_Sub030] (puzzle: Same State 1) | 28.1 | 28.3 | 38.2 |  |  | 
